Reference: US20240132548A1 (Janssen / Centocor, published 2024)
Substitutions are numbered along the chain they refer to.

Columns and labels:
Test in all cases: BLI (Octet), biotinylated mAb on streptavidin sensors, culture supernatant
[1] = biological target: T1, RSV181177, non-stabilized RSV F B consensus soluble polypeptide with foldon and C-tag (respiratory syncytial virus, subgroup B …, UniProt O36634 26-109; O36634 137-540)
T1 construct: Measured in crude culture supernatant, no furin co-transfection; processing may be incomplete; End 551 is the end of the entry as counted; also called non-stabilized RSV F type B; non-stabilized F
T1 chain 1: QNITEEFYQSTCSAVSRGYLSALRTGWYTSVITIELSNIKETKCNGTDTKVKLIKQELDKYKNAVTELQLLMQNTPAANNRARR
T1 chain 2: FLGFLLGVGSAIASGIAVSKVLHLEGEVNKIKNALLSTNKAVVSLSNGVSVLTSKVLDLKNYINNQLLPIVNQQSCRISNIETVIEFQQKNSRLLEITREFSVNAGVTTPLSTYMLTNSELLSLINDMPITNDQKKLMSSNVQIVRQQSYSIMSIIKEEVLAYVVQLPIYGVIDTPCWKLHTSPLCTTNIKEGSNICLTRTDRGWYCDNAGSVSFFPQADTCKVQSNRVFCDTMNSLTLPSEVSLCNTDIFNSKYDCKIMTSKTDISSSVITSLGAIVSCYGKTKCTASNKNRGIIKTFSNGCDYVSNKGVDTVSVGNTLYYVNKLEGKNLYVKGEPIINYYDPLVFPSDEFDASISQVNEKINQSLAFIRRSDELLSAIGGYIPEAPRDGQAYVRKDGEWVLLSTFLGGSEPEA
Description: (§1) Quantitative Octet (BioLayer Interferometry) was used for measuring protein concentration in the supernatants at day of harvest and after 7 or 30 days storage at 4° C. CR9501 (an antibody specifically recognizing pre-fusion RSV F protein, which comprises the variable regions of the antibodies 58C5 as described in WO2012/006596) and CR9506 (recognizing pre-fusion and post-fusion RSV F protein and comprising a heavy chain variable region comprising SEQ ID NO: 21, and a light chain variable region comprising SEQ ID NO: 22) were biotinylated by standard protocols and immobilized on Streptavidin biosensors (ForteBio, Portsmouth, UK).
(§2) Afterwards, the coated biosensors were blocked in mock cell culture supernatant. A quantitative experiment was performed as follows: temperature 30° C., shaking speed 1000 rpm, time of the assay 300 sec. The concentration of the protein was calculated using a standard curve. The standard curve was prepared for each coated antibody CR9501 and CR9506 using the pre-fusion RSV FA protein (SEQ ID NO: 19; described previously in WO17174568) diluted in mock medium. […] The data analysis was done using the ForteBio Data Analysis 10.0.1.6 software (ForteBio).

[2] = biological target: T2, RSV180907 (tag-free, RSV FB signal peptide) (respiratory syncytial virus, subgroup B …, UniProt O36634 26-109; P13843 137-540)
T2 construct: Same mature protein as RSV180913, expressed with the RSV B signal peptide; measured in culture supernatant, furin co-transfected
T2 chain 1: T1 chain 1 with P76Q
T2 chain 2: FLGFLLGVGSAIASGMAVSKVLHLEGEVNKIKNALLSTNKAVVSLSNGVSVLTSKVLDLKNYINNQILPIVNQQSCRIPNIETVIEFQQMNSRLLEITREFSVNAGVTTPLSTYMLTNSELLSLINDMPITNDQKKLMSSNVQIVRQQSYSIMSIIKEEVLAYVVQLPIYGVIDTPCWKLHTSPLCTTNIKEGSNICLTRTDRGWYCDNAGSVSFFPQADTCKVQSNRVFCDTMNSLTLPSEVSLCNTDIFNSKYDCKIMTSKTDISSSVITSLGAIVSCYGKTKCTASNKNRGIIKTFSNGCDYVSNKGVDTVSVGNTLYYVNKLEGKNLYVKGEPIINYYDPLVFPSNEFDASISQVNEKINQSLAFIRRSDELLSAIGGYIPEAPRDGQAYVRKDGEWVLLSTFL
Description: as §1, §2

[3] = biological target: T3, RSV181182 (I152M + K226M + D486N + S215P + P101Q + D489Y + T357R + N371Y) (respiratory syncytial virus, subgroup B …, UniProt O36634 26-109; P13843 137-540)
T3 chain 1: T1 chain 1 with P76Q
T3 chain 2: T1 chain 2 with I16M, S79P, K90M, T221R, N235Y, D350N, D353Y
Description: as §1, §2

[4] = biological target: T4, RSV181180 (I152M + K226M + D486N + S215P + P101Q) (respiratory syncytial virus, subgroup B …, UniProt O36634 26-109; P13843 137-540)
T4 chain 1: T1 chain 1 with P76Q
T4 chain 2: T1 chain 2 with I16M, S79P, K90M, D350N
Description: as §1, §2

Measured: binding result

B1: CR9506 (antibody, human IgG1, kappa, V domains shown)
VH: EVQLVQSGAEVKKPGSSVKVSCKASGGTFSRSLITWVRQAPGQGLEWMGEISLVFGSAKNAQKFQGRVTITADESTSTAHMEMISLKHEDTAVYYCAAHQYGSGTHNNFWDESELRFDLWGQGTLVTVSS
VL: DIVMTQSPSSLSASVGDRVTIACRASQSIGTYLNWYQQKPGKAPKLLIYAASSLQSGVPSRFSGSGSGTHFTLAISSLQAEDFATYSCQQSYTIPYTFGQGTKLEIKR
notes: Biotinylated for Octet; coated and also used HRP-labelled as detection antibody in the ELISA
binds: all assays above
